Laboratory results: patent publication US20150050306A1 (University of Washington, published 2015)

Experiments:
Mota Fab [1] = molecular target: T1, Mota Fab; experiment: SPR (Biacore 2000); scaffold coupled to chip, Motavizumab as analyte
T1 construct: also called Motavizumab Fab; Fab portion of Motavizumab
Protocol: All experiments were carried out on a Biacore 2000 (GE Healthcare) at 25° C. with HBSEP (0.01 M HEPES pH 7.4, 0.15 M NaCl, 3 mM EDTA and 0.005% (v/v) Surfactant P20) (GE Healthcare) as running buffer. […] Samples of different protein concentrations were injected in duplicates over this surface at a flow rate of 50-100 μl/min. If necessary, surface regeneration was performed with two 60 seconds injections of 3 M MgCl₂ at a flow rate of 10 μl/min. One flow cell contained anti-human IgG only and its interaction with the analyte was used as reference. Alternatively, another format was used where the epitope where amine-coupled to the sensor chip and Mota Fab was injected with identical flow rates as mentioned above.
To test whether the functional site (mota epitope) was recreated with fidelity, binding affinities were assessed by Surface Plasmon Resonance (SPR) experiments (FIG. 6). […] (See Table 3) The scaffolds were coupled to the biacore chip and Motavizumab was used as analyte.

Mota Fab [2] = molecular target: T1, Mota Fab; experiment: SPR (Biacore 2000); koff/kon; scaffold coupled to chip, Motavizumab as analyte

Binder	koff (Mota Fab [1])	kon (Mota Fab [1])	Kd (Mota Fab [2])
FFL_002 (designed binder, Purified on Ni++ resin; no tag is stated for this construct) GSLSDVRKDVEKRIDKALEAFKNKMDKEKAAFRKDPPSEERRKDKKKEFREEREQVRKAIRNVLSEALSKINDLPITNDKKKLVSNDVIKKVAEMKKKVELEVADVEKKVTQGSW	0.000734 s⁻¹	1.56e+06 M⁻¹ s⁻¹	470 pM
FFL_007 (designed binder) GSLSDIRKDAERRFDKLVEAVKNKLDKMKAALRKEGQQEERMKDLMKFMRKEVEQLRKAMRNFLSEALSKINDMPITNDDKKLISNDLKKYDAIAEKKLEAMKADVERMATQGSWLEHHHHHH	0.000136 s⁻¹	1.45e+06 M⁻¹ s⁻¹	94.1 pM
FFL_004 (designed binder, Purified on Ni++ resin; no tag is stated for this construct) GSMSDARKDLEERLDKLLEAAKNKMDKFKAAMRKRGQREERKKDWAKIVRDEFEQFRKAVRNFLSEALSKINDYPITNDDKKLTSNDTKKFAAEVEKKLEAFKADVEEAATQ	0.000832 s⁻¹	1.05e+06 M⁻¹ s⁻¹	795 pM
FFL_005 (designed binder) GSMSDIRKDLEERFDKLVEALKNKVDKMKAAFRKDQFHEERMKDWFKDLRKEVEQMRRAVRNYASEALSKINDLPITNDDKKLASNDVLKLVAEVWKKLEAILADVEAWFTQLEHHHHHH	0.000209 s⁻¹	2.97e+06 M⁻¹ s⁻¹	70.3 pM
FFL_001 (designed binder, monomeric) GSRSDMRKDAERRFDKFVEAAKNKFDKFKAALRKGDIKEERRKDMKKLARKEAEQARRAVRNRLSELLSKINDMPITNDQKKLMSNDVLKFAAEAEKKIEALAADAEDKFTQGSW	0.000119 s⁻¹	3.99e+06 M⁻¹ s⁻¹	30 pM
FFL_006 (designed binder, Purified on Ni++ resin; no tag is stated for this construct) GSFSDIRKDAEDRADKAFEAAKNKFDKIKAAIRKDWPSEERAKDLMKKARYEMEQARRAIRNIESEALSKINDLPITNDQKKLASNDIIKEMARLFKKLEALMADIEILVTQ			652 pM
